Residue numbers refer to the chain shown, from its start. Names and notes keep the numbering of the source.
B1: S265N/K374E: ADA2 combination variant SEQ ID NO:60 (protein)
chain: IDETRAHLLLKEKMMRLGGRLVLNTKEELANERLMTLKIAEMKEAMRTLIFPPSMHFFQAKHLIERSQVFNILRMMPKGAALHLHDIGIVTMDWLVRNVTYRPHCHICFTPRGIMQFRFAHPTPRPSEKCSKWILLEDYRKRVQNVTEFDDSLLRNFTLVTQHPEVIYTNQNVVWSKFETIFFTISGLIHYAPVFRDYVFRSMQEFYEDNVLYMEIRARLLPVYELSGEHHDEEWSVKTYQEVAQKFVETHPEFIGIKIIYNDHRSKDVAVIAESIRMAMGLRIKFPTVVAGFDLVGHEDTGHSLHDYKEALMIPAKDGVKLPYFFHAGETDWQGTSIDRNILDALMLNTTRIGHGFALSKHPAVRTYSWEKDIPIEVCPISNQVLKLVSDLRNHPVATLMATGHPMVISSDDPAMFGAKGLSYDFYEVFMGIGGMKADLRTLKQLAMNSIKYSTLLESEKNTFMEIWKKRWDKFIADVATK
modifications: human ADA2 S262N/K371E, mature numbering
B2: S265N/R23E: ADA2 combination variant SEQ ID NO:61 (protein)
chain: B1 chain with R20E, E371K
modifications: human ADA2 S262N/R20E, mature numbering
B3: S265N/K374D: ADA2 combination variant SEQ ID NO:59 (protein)
chain: B1 chain with E371D
modifications: human ADA2 S262N/K371D, mature numbering
B4: S265N/R23E/K374D: ADA2 combination variant SEQ ID NO:62 (protein)
chain: B1 chain with R20E, E371D
modifications: human ADA2 S262N/R20E/K371D, mature numbering
B5: S265N/R23E/K374E: ADA2 combination variant SEQ ID NO:63 (protein)
chain: B1 chain with R20E
modifications: human ADA2 S262N/R20E/K371E, mature numbering

Key:
[1] = Kinetic assessment of adenosine deaminase activity (ammonia assay, Michaelis-Menten); assay type: biochemical; conditions: for Km / Vmax / kcat: [E] = 8.5 nM; for kcat: kcat=Vmax/0.0085/60; for kinetics properties compared to WT: pH 7.6 and pH 6.5
Procedure, shortened: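 Coupled ammonia assay: rHuADA2 WT or variants (1 μg/mL, 17 nM in 2× mix) with adenosine 20 μM–20 mM, α-ketoglutarate, NADPH and GDH, at pH 7.6 or pH 6.5 (PIPES), room temperature. Michaelis-Menten fit gave Km, Vmax, kcat, kcat/Km.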

[2] = Spectrophotometric adenosine deaminase assay at varying pH (pH optimum); assay type: biochemical
Procedure: Adenosine deaminase activity of rHuADA2 and variants at varying pH were assessed to determine the pH optimum of each. The adenosine deaminase activity was determined spectrophotometrically by direct measurement of changes in adenosine absorbance. […] During the deamination reaction, the absorbance of ADO decreases while that of INO increases with time. Since the dynamic changes in absorbance make it difficult to monitor activity at a single wavelength, the relative ADO activity was determined as a ratio of the ADO peak to isobestic point (i.e. the wavelength where ADO and INO have the same extinction coefficient). The isobestic point, which is 253 nm, remains unchanged and is concentration independent, so that it is the reference point to correct for volume or intensity discrepancies.
To construct the standard curve for ADO and INO, a series of solution mixtures in 0.001% Tween-20 containing different concentrations of ADO and INO were prepared. The total concentration of ADO and INO mix was 50 μM, in 1×PBS (10 mM phosphate, 137 mM NaCl, 2.7 mM KCl), pH 7.4. The samples were scanned with the wavelengths between 220 nm and 300 nm to determine the isosbestic point, where all spectra cross.
For performing the spectrophotometric adenosine deaminase assay of ADA2 and variants, a 2× solution containing 10 mM ADO in 100 mM potassium phosphate buffer (KPB), 0.1% Tween-20 at different pHs (i.e. 5.5, 6, 6.5, 6.75, 7, 7.25, 7.4, 7.75 and 8) were prepared. A separate 2× solution containing 2 μg/mL WT rHuADA2 or variants were prepared in the same 100 mM potassium phosphate buffer (KPB), 0.1% Tween-20 at the respective pH (i.e. 5.5, 6, 6.5, 6.75, 7, 7.25, 7.4, 7.75 and 8). An equal volume of the ADO solution and the ADA2 solution (wildtype or variants) were mixed to initiate reaction. At each time point (i.e. 1, 3, 5, 7, 9, 11, 13 and 15 min), a small aliquot (4 μl) was removed and diluted 50 times by adding to 196 μl 1×PBS, pH 7.4. The diluted samples were further diluted 2 fold (in duplicates) by adding 85 μl samples to 85 μl 1×PBS in a UV-transparent half area plate. The absorbance at 253 nm and 261 nm were measured of each diluted sample.
Adenosine concentration was determined using the A261/A253 ratio and the standard curve. Adenosine deaminase activity was measured by negative change in ADO concentration per min×100.

[3] = Thermal stability by differential scanning fluorimetry (DSF); assay type: physicochemical; conditions: 0.1-1 mg/mL protein
Procedure: The stability of the rHuADA2 WT and variants was measured by differential scanning fluorimetry (DSF) at increasing temperatures. DSF measures conformational stability, which correlates with thermal stability. The melting temperature (Tm) in DSF is defined as the midpoint of the protein unfolding transition.
Non-PEGylated WT rHuADA2, non-PEGylated rHuADA2 variants, and PEGylated forms of WT rHuADA2 and rHuADA2 variants were prepared at concentrations of 0.1-1 mg/mL and mixed with the ROX™ protein thermal shift dye (Applied Biosystems, Carlsbad, Calif.; Cat. No. 4461146) to a final dye concentration that corresponds to a 125-fold dilution of the stock ROX™ solution. Protein samples were then loaded into 96-well plate at a volume of 20 μL/well in triplicate. A ViiA7 RT-PCR System (Applied Biosystems, Carlsbad, Calif.) was used to measure the shift in fluorescence as the temperature of the samples were increased. The reactions were subjected to the following steps: incubation at 25° C. for 2 min; ramping of temperature from 25 to 99° C. at a rate of 0.05° C. per second; followed by a 99° C. incubation for 2 min. The wavelengths used for emission and excitation were 623 nanometers (nm) and 580 nm, respectively.

[4] = Heparin binding ELISA (heparin coated microtiter plate); conditions: single and S265N combination variants (Table 34)
Procedure: A 96-well plate was coated with 100 μL of 200 μg/mL heparin sodium salt (Calibochem, EMD Milipore, Billerica, Mass.; Cat. No. 375095) in Na2CO3 buffer (pH 9.6), overnight at 4° C. The wells were blocked with 5% milk in PBS, and washed 6 times with PBS. 3 μM of select rHuADA2 variants (see Table 20), WT rHuADA2 (positive control) and WT rHuADA1 (negative control) were added to the wells individually and incubated for 2 hours at room temperature, followed by washing 6 times with PBS. 100 μL of 1:1000 diluted horseradish peroxidase (HRP)-anti-FLAG antibody (Abcam, Cambridge, UK; Cat. No. Ab1238) was added to the wells to detect binding and incubated at room temperature for 1 hour. The ELISA reactions were developed by adding the 3,3′,5,5′-Tetramethylbenzidine (TMB) substrate solution (Pierce, Thermo Fisher Scientific, Rockford, Ill.) according the manufacturer's instructions and reading the optical density at 450 nm (OD450) on a plate reader.

Row | Heparin Binding ELISA Average OD450 [4] | Molecule | Km ([1]; pH 6.5) [µM] | Vmax ([1]; pH 6.5) [µM/min] | kcat ([1]; pH 6.5) [s⁻¹] | Km ([1]; pH 7.6) [µM] | Vmax ([1]; pH 7.6) [µM/min] | kcat ([1]; pH 7.6) [s⁻¹] | kinetics properties compared to WT [1] | Adenosine deaminase activity Δ [ADO]/min × (−100) ([2]; pH 5.5) | Adenosine deaminase activity Δ [ADO]/min × (−100) ([2]; pH 6) | Adenosine deaminase activity Δ [ADO]/min × (−100) ([2]; pH 6.5) | Adenosine deaminase activity Δ [ADO]/min × (−100) ([2]; pH 6.75) | Adenosine deaminase activity Δ [ADO]/min × (−100) ([2]; pH 7) | Adenosine deaminase activity Δ [ADO]/min × (−100) ([2]; pH 7.25) | Adenosine deaminase activity Δ [ADO]/min × (−100) ([2]; pH 7.4) | Adenosine deaminase activity Δ [ADO]/min × (−100) ([2]; pH 7.75) | Adenosine deaminase activity Δ [ADO]/min × (−100) ([2]; pH 8) | Tm, melting temperature by DSF [3] [°C]
1 | 0.6 | B1 | 1410 | 57.13 | 112.02 | 2540 | 87.44 | 171.45 | greatest improvements in catalytic activity at pH 6.5 | 31.84 | 44.31 | 50.23 | 54.55 | 59.68 | 60.07 | 57.15 | 28.28 | 1.77 | 61.3
2 | 1.03 | B2 | 1430 | 53.25 | 104.41 | 2900 | 63.13 | 123.78 | greatest improvements in catalytic activity at pH 6.5 | 27.34 | 38.26 | 45.58 | 48.49 | 51.90 | 56.12 | 50.44 | 24.42 | 4.63 | 59.6
3 | 0.92 | B3 | 1510 | 43.85 | 85.98 | 2860 | 78.29 | 153.51 |  | 22.89 | 33.51 | 39.06 | 41.58 | 45.98 | 42.69 | 43.37 | 22.29 | 4.36 | 60.8
4 | 0.69 | B4 | 1500 | 43.42 | 85.14 | 3130 | 72.78 | 142.71 |  | 20.27 | 28.16 | 35.51 | 33.24 | 40.08 | 42.28 | 34.66 | 18.46 | 4.94 | 59.8
5 | 0.93 | B5 | 1290 | 63.74 | 124.98 | 2870 | 82.38 | 161.53 | greatest improvements in catalytic activity at pH 6.5 | 37.94 | 52.70 | 66.08 | 67.95 | 74.68 | 77.81 | 67.77 | 35.97 | 2.04 | 60.4

— patent US9969998B2, “Compositions of adenosine deaminase-2 (ADA2), variants thereof and methods of using same” (Halozyme, Inc., priority 2014, dated 2018)
